Data taken from US20110135672A1 (MEDICAL COLLEGE OF GEORGIA RESEARCH INSTITUTE INC GEORGIA, published 2011).

Target: T1, ILT4 receptor on dendritic cells of ILT4 transgenic mice (UniProt Q8N423 22-597, limits assumed)
T1 construct: whole, on cells; also called LILRB2; CD85d
Experiment: immunoprecipitation with anti-ILT4 antibody, immunoblot with anti-Csk antibody
Description: The pellets from 5×10⁶ untreated DCs and DCs treated with HLA-G ligands and LPS were lysed in 1 ml RIPA buffer and precleared several times with Sepharose-coupled protein A (50% wt/vol slurry). Proteins were immunoprecipitated with saturating amounts of anti-ILT4 mAb and protein G Sepharose (Amersham Biosciences). Immunoprecipitation experiments were performed using several ILT4-specific antibodies, including polyclonal anti-ILT4 (C-12), anti-ILT4 (N-14), anti-ILT4 (P-14), anti-ILT (H-300), and anti-ILT4 (42D1) mAb (all from Santa Cruz Biotechnology, Santa Cruz, Calif.). […] The immunoblot was reprobed with anti-SHP-1 and anti-SHP-2 antibodies (both Upstate), and anti-Csk antibody (Santa Cruz Biotechnology). Signals were developed using the enhanced chemoluminescence (ECL) system (Amersham Biosciences). In some cases, densitometric scans of bands were obtained to determine the extent of ILT4-mediated signal inhibition.

T1 sequence (Q8N423 22-597 limits assumed): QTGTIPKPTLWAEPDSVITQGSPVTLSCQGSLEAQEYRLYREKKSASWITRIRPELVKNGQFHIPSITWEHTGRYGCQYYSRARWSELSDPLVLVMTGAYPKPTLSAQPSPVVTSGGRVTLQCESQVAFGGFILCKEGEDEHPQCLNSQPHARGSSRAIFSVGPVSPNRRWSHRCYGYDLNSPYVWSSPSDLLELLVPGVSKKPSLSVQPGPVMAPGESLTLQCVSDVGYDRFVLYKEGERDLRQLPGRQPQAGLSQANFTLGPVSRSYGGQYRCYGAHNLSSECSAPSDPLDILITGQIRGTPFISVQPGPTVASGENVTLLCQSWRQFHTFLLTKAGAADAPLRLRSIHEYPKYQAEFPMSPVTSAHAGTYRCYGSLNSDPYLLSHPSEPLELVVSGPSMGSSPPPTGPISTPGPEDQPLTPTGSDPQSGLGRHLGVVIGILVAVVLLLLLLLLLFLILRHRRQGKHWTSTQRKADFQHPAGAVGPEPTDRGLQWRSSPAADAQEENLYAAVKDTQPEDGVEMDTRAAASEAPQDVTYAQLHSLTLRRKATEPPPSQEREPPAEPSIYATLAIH

B1: C-terminal Src kinase (Csk) (enzyme, mouse, UniProt P41241 2-450, looked up)
chain: SAIQAAWPSGTECIAKYNFHGTAEQDLPFCKGDVLTIVAVTKDPNWYKAKNKVGREGIIPANYVQKREGVKAGTKLSLMPWFHGKITREQAERLLYPPETGLFLVRESTNYPGDYTLCVSCEGKVEHYRIMYHASKLSIDEEVYFENLMQLVEHYTTDADGLCTRLIKPKVMEGTVAAQDEFYRSGWALNMKELKLLQTIGKGEFGDVMLGDYRGNKVAVKCIKNDATAQAFLAEASVMTQLRHSNLVQLLGVIVEEKGGLYIVTEYMAKGSLVDYLRSRGRSVLGGDCLLKFSLDVCEAMEYLEGNNFVHRDLAARNVLVSEDNVAKVSDFGLTKEASSTQDTGKLPVKWTAPEALREKKFSTKSDVWSFGILLWEIYSFGRVPYPRIPLKDVVPRVEKGYKMDAPDGCPPAVYEVMKNCWHLDAATRPTFLQLREQLEHIKTHELHL
Does B1 bind?
Result: no binding
